# Patent US20190359687A1 (Bayer, published 2019)
# No end group written: not given here. *: point of attachment. Biotin = O=C1N[C@H]2[C@H](CS[C@H]2CCCCC(=O)*)N1
# T1: human glycophorin A in the red blood cell membrane (human, UniProt P02724 20-150)
# T1 construct: whole, on cells; used for intact RBC, isolated RBC membranes and transfected cells; the assay field tells which; also called GPA; hGPA
# T1 sequence (looked up): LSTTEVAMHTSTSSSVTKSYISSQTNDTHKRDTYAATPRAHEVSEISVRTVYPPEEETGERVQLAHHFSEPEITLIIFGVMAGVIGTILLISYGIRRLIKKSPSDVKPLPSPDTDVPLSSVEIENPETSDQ
# T2: purified human glycophorin A protein (Sigma, cat # G5017) (human, UniProt P02724 20-150)
# T2 construct: mature; also called Sigma hGPA; Sigma GPA
# T2 sequence (looked up): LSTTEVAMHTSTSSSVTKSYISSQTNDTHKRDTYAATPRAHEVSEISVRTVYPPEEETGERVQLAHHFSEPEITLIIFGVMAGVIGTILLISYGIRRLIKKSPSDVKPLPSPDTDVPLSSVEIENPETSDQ
# T3: recombinant human GPA ectodomain (human, UniProt P02724 20-91)
# T3 construct: also called recombinant hGPA ECD; recGPA
# T3 sequence: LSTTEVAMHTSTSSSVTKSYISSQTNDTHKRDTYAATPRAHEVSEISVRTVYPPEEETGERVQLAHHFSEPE
# T4: asialo hGPA (desialylated human GPA) (human, UniProt P02724 20-150, desialylated)
# T4 construct: mature; also called asialo-GPA
# T4 sequence (looked up): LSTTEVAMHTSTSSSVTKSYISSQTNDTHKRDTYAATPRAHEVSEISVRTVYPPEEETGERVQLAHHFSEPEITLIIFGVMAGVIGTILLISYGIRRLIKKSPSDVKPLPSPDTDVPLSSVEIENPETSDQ
# T5: GP7 (human)
# T5 peptide: Biotin-SVRTVYPP
# T6: GP13 (human)
# T6 peptide: Biotin-PPEEETGE
# T7: GP10 (human)
# T7 peptide: Biotin-TVYPPEEE
# T8: GP11 (human)
# T8 peptide: Biotin-VYPPEEET
# T9: GP12 (human)
# T9 peptide: Biotin-YPPEEETG
# T10: GP5-19 (human, biotin at the N-terminus)
# T10 construct: GP5 with alanine at position 19 (E19A), already in the entry
# T10 peptide: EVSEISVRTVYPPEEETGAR
# T11: GP5-11 (human, biotin at the N-terminus)
# T11 construct: GP5 with alanine at position 11 (Y11A), already in the entry
# T11 peptide: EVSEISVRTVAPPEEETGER
# T12: GP5-1 (human, biotin at the N-terminus)
# T12 construct: GP5 with alanine at position 1 (E1A), already in the entry
# T12 peptide: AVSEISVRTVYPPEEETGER
# T13: GP5-12 (human, biotin at the N-terminus)
# T13 construct: GP5 with alanine at position 12 (P12A), already in the entry
# T13 peptide: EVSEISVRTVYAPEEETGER
# T14: GP5-2 (human, biotin at the N-terminus)
# T14 construct: GP5 with alanine at position 2 (V2A), already in the entry
# T14 peptide: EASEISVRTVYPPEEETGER
# T15: GP5-18 (human, biotin at the N-terminus)
# T15 construct: GP5 with alanine at position 18 (G18A), already in the entry
# T15 peptide: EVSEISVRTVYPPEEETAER
# T16: GP5-9 (human, biotin at the N-terminus)
# T16 construct: GP5 with alanine at position 9 (T9A), already in the entry
# T16 peptide: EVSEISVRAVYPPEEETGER
# T17: GP5-20 (human, biotin at the N-terminus)
# T17 construct: GP5 with alanine at position 20 (R20A), already in the entry
# T17 peptide: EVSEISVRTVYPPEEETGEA
# T18: GP5-10 (human, biotin at the N-terminus)
# T18 construct: GP5 with alanine at position 10 (V10A), already in the entry
# T18 peptide: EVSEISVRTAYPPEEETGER
# T19: GP5-16 (human, biotin at the N-terminus)
# T19 construct: GP5 with alanine at position 16 (E16A), already in the entry
# T19 peptide: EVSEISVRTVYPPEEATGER
# T20: GP5-17 (human, biotin at the N-terminus)
# T20 construct: GP5 with alanine at position 17 (T17A), already in the entry
# T20 peptide: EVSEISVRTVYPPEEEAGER
# T21: GP5-15 (human, biotin at the N-terminus)
# T21 construct: GP5 with alanine at position 15 (E15A), already in the entry
# T21 peptide: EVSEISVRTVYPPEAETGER
# T22: GP5-5 (human, biotin at the N-terminus)
# T22 construct: GP5 with alanine at position 5 (I5A), already in the entry
# T22 peptide: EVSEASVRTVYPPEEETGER
# T23: GP5-8 (human, biotin at the N-terminus)
# T23 construct: GP5 with alanine at position 8 (R8A), already in the entry
# T23 peptide: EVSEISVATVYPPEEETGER
# T24: GP5-14 (human, biotin at the N-terminus)
# T24 construct: GP5 with alanine at position 14 (E14A), already in the entry
# T24 peptide: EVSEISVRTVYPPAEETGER
# T25: GP5-4 (human, biotin at the N-terminus)
# T25 construct: GP5 with alanine at position 4 (E4A), already in the entry
# T25 peptide: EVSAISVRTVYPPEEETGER
# T26: GP5-3 (human, biotin at the N-terminus)
# T26 construct: GP5 with alanine at position 3 (S3A), already in the entry
# T26 peptide: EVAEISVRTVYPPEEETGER
# T27: GP5-6 (human, biotin at the N-terminus)
# T27 construct: GP5 with alanine at position 6 (S6A), already in the entry
# T27 peptide: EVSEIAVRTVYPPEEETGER
# T28: GP5-7 (human, biotin at the N-terminus)
# T28 construct: GP5 with alanine at position 7 (V7A), already in the entry
# T28 peptide: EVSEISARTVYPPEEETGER
# T29: GP5-13 (human, biotin at the N-terminus)
# T29 construct: GP5 with alanine at position 13 (P13A), already in the entry
# T29 peptide: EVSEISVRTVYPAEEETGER
# What was measured:
# [1] = target: T30, dog red blood cells (dog); experiment: FACS, dog RBC
# T30 construct: also called dog RBC
# Procedure: (§1) Hybridomas were generated from the spleen cells of these mice and these hybriomas were screened first by fluorescence activated cell sorting (FACS) against isolated human and monkey (Cynomolgus monkey and Rhesus monkey) red blood cells (RBC) and then by ELISA against purified human glycophorin A protein (GPA). Isolated RBC were prepared from whole blood from normal human, cynomolgus monkey, and beagle dog, were anticoagulant with sodium heparin (Bioreclamation). 2-3 mL of whole blood was loaded gently on the top of 3 mL Ficoll Plus (Sigma Aldrich) then centrifuged at 500 g for 20 min at room temperature (RT). The RBC pellets were washed 3 times with 10 mL of PBS, and centrifuge 400 g for 10 min at RT. RBC pellets were re-suspended in PBS at the same total volume as the original blood volume to achieve the same RBC cell density as in whole blood and stored at 4° C. Purified human glycophorin A protein was obtained from Sigma Aldrich and coated on ELISA plates at 2 ug/ml. Binding of antibodies to human GPA was detected using appropriate secondary antibodies using methods well known in the art.
# [2] = target: T1, human glycophorin A in the red blood …; experiment: FACS, hu RBC
# Procedure: as §1
# [3] = target: T31, Cynomolgus monkey glycophorin A on Cynomolgus monkey red blood cells (Cynomolgus monkey); experiment: FACS, Cyno RBC
# T31 construct: whole, on cells; also called Cyno RBC; Cyno GPA
# [4] = target: T2, purified human glycophorin A protein …; experiment: ELISA, hGPA
# Procedure: as §1
# [5] = target: T3, recombinant human GPA ectodomain; experiment: SPR, IgG
# [6] = target: T4, asialo hGPA (desialylated human GPA); experiment: ELISA, purified IgG
# Procedure: (§2) The “Sigma GPA” is a crude preparation of human GPA extracted from human red blood cells and is therefore representative of the highly glycosylated form of the native protein.
# (§3) EC 50 values were determined from a dilution curve of the antibody. Sigma GPA is partially purified GPA extracted from human red blood cells and purchased from Sigma Chemical Company (cat # G5017), asialo hGPA is human GPA that was desialylated and ECD is the recombinantly expressed ectodomain which is the extracellular portion of GPA.
# [7] = target: T3, recombinant human GPA ectodomain; experiment: ELISA, purified IgG
# Procedure: as §2, §3
# [8] = target: T2, purified human glycophorin A protein …; experiment: ELISA, purified IgG
# Procedure: as §2, §3
# [9] = target: T1, human glycophorin A in the red blood …; experiment: FACS on RBC of huGPA/HemA transgenic mice (muTGRBC), 1E+6 RBC/mL, scFv titrated
# [10] = target: T5, GP7; experiment: peptide ELISA, summary of Table 23
# Source text: (§4) These peptides were attached to the surface of a streptavidin coated plate via a biotin moiety that was present at the N-terminus of each peptide.
# [11] = target: T6, GP13; experiment: peptide ELISA, summary of Table 23
# Source text: as §4
# [12] = target: T7, GP10; experiment: peptide ELISA, summary of Table 23
# Source text: as §4
# [13] = target: T8, GP11; experiment: peptide ELISA, summary of Table 23
# Source text: as §4
# [14] = target: T9, GP12; experiment: peptide ELISA, summary of Table 23
# Source text: as §4
# [15] = target: T10, GP5-19; experiment: ELISA, biotin-peptide on streptavidin plate, Fab 0.5 ug/ml
# [16] = target: T11, GP5-11; experiment: as above
# [17] = target: T12, GP5-1; experiment: as above
# [18] = target: T13, GP5-12; experiment: as above
# [19] = target: T14, GP5-2; experiment: as above
# [20] = target: T15, GP5-18; experiment: as above
# [21] = target: T16, GP5-9; experiment: as above
# [22] = target: T17, GP5-20; experiment: as above
# [23] = target: T18, GP5-10; experiment: as above
# [24] = target: T19, GP5-16; experiment: as above
# [25] = target: T20, GP5-17; experiment: as above
# [26] = target: T21, GP5-15; experiment: as above
# [27] = target: T22, GP5-5; experiment: as above
# [28] = target: T23, GP5-8; experiment: as above
# [29] = target: T24, GP5-14; experiment: as above
# [30] = target: T25, GP5-4; experiment: as above
# [31] = target: T26, GP5-3; experiment: as above
# [32] = target: T27, GP5-6; experiment: as above
# [33] = target: T28, GP5-7; experiment: as above
# [34] = target: T29, GP5-13; experiment: as above
binding result [10],binding result [11],binding result [12],binding result [13],binding result [14],binding signal (ELISA) [15],binding signal (ELISA) [16],binding signal (ELISA) [17],binding signal (ELISA) [18],binding signal (ELISA) [19],binding signal (ELISA) [20],binding signal (ELISA) [21],binding signal (ELISA) [22],binding signal (ELISA) [23],binding signal (ELISA) [24],binding signal (ELISA) [25],binding signal (ELISA) [26],binding signal (ELISA) [27],binding signal (ELISA) [28],binding signal (ELISA) [29],Binder,also measured
–,–,–,–,–,–,–,–,–,–,–,–,–,–,–,–,–,–,–,–,"13G7G1/C3 (antibody, V domains shown, as m8; also called TPP-3423) VH: RVQLQQSGAELARPGASVKMSCKASGYTFTNYAMHWVKQRPGQGLEWIGYINPKSDNTNYNQKFKDKATLTTDKSSATAYMQLSSLTSDDSAVYYCQTGTRDYWGQGTTLTVSS VL: HIVLTQSPAIMSASPGEKVTIFCSASSSITYVYWFQQKPGTSPKLWIYSTSSLPSGVPARFSGSGSGTSYSLTISRMEAEDAATYYCHQRNSYPFTFGSGTKLEIK",FACS signal [1]: 1.14 relative flourescence units; FACS signal [2]: 2880 relative flourescence units; FACS signal [3]: 294 relative flourescence units; EC50 [4]: 0.402 nM; Kd [5]: 5.3 nM; koff [5]: 0.000405 s⁻¹; kon [5]: 76400 M⁻¹ s⁻¹; t½ [5]: 28.5 min; EC50 [6]: 1.24 nM; EC50 [7]: 1.43 nM; EC50 [8]: 1.45 nM
–,–,–,–,–,–,–,–,–,–,–,–,–,–,–,–,–,–,–,–,"TPP-7792 scFv (scFv, as m101 (tag, order, linker)) scFv: DIQLTQSPSFLSASVGDRVTITCRASSSVRYIYWFQQKPGKAPKLLIYATSFRQSGVPSRFSGSGSGTEYTLTISSLQPEDFATYYCHQRNSFPYTFGQGTKLEIKEVQLVQSGAEVKKPGASVKVSCKASGYTFTTYAIHWVRQAPGQGLEWMGYINPSSGYTRYNPKFKGRVTMTRDKSTSTAYMELRSLRSDDTAVYYCWTGTRDYWGQGTTVTVSS",EC50 (read off the curve) [9]: ~20 µg/mL
no binding,no binding,no binding,no binding,no binding,6470,1,6210,6450,6360,6400,6810,6440,5910,6540,6870,6720,6270,6790,1280,"TPP-7790 Fab (Fab, V domains shown, Tested as Fab with a 6xHIS tag) VH: EVQLVQSGAEVKKPGASVKVSCKASGYTFTTYAIHWVRQAPGQGLEWMGYINPSSGYTRYNPKFKHRVTMTRDKSTSTAYMELRSLRSDDTAVYYCWTGTRDYWGQGTTVTVSS VL: DIQLTQSPSFLSASVGDRVTITCRASSSVRYIYWFQQKPGKAPKLLIYATSFLQSGVPSRFSGSGSGTEYTLTISSLQPEDFATYYCHQRNSFPYTFGQGTKLEIK",binding signal (ELISA) [30]: 6540; binding signal (ELISA) [31]: 6680; binding signal (ELISA) [32]: 6520; binding signal (ELISA) [33]: 6700; binding signal (ELISA) [34]: 6570
no binding,no binding,no binding,no binding,no binding,6980,2,6800,6790,6700,7150,7270,7170,6210,6680,7410,7250,7400,6700,2670,"TPP-7792 Fab (Fab, V domains shown, Tested as Fab with a 6xHIS tag) VH: EVQLVQSGAEVKKPGASVKVSCKASGYTFTTYAIHWVRQAPGQGLEWMGYINPSSGYTRYNPKFKGRVTMTRDKSTSTAYMELRSLRSDDTAVYYCWTGTRDYWGQGTTVTVSS VL: DIQLTQSPSFLSASVGDRVTITCRASSSVRYIYWFQQKPGKAPKLLIYATSFRQSGVPSRFSGSGSGTEYTLTISSLQPEDFATYYCHQRNSFPYTFGQGTKLEIK",binding signal (ELISA) [30]: 6630; binding signal (ELISA) [31]: 7370; binding signal (ELISA) [32]: 6660; binding signal (ELISA) [33]: 6690; binding signal (ELISA) [34]: 6960
